Results published in the nanobody polyreactivity screen of Harvey et al. (2022).

Test: yeast display, Sf9 membrane polyspecificity reagent, FACS + sequencing; frameworks hold sequencing errors
Outline: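 Nanobodies came from a synthetic yeast display library in Saccharomyces cerevisiae BJ5465, induced with galactose for 36–48 hours and stained for 1 hour at 4 °C with 10% biotinylated, detergent-solubilized Sf9 membrane reagent. Cells were enriched on streptavidin microbeads and then FACS-sorted, with low and high (top ~1%) gates set on anti-HA fluorescence for expression and streptavidin fluorescence for reagent binding. Each polyreactivity label reflects the gate a clone came from. Genes were amplified by colony PCR, sequenced by MiSeq 2 × 250 and filtered by CDR length.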

Sequence | polyreactivity (PSR sort gate)
QVQLVESGGGLVQAGGSLRLSCAASGITFRYYAMGWYRQAPGKERELVAAITRGGRTNYADSVKGRFTISRDNAKNTVYLQMNSLKPEDAAVYYCATGRDSNFGNSYYYWGQGTQVTVSS | high polyreactivity
QVQLVESGGGLVQAGGSLRLSCAASGITFRYYAMGWYRQAPGKERELVAGISGRGGSTYYADSVKGRFTISRDNAKNTVYLQLNSLKPEDTAVYYCAKDRLWYRGYRWGYYYWGQGTQVTVSS | high polyreactivity
QVQLVESGGGLVQAGGSLRLSCAASGITFRYYAMGWYRQAPGKERELVATITRGGSTYYADSVKGRFTISRDNAKNTVYLQMNSLKPEDTADYYCAAAGQRYTYWVDYWGQGTQVTVSS | high polyreactivity
QVQLVESGGGLVQAGGSLRLSCAASGITFSFYAMGWYRQAPGKERELVATIDSGGSTNYADSVKGRFTISRDNAKNTVYLQMNSLKPEDTAVYYCAVVFHYSTIGGGYRPRMYYWGQGTQVTVSS | low polyreactivity
QVQLVESGGGLVQAGGSLRLSCAASGITFSGYDMGWYRQAPGKERELVADITISTGSTYYADSVKGRFTISRDNAKNTVYLQMNSLKPEDTAVYYCAADWQQDRTVVLPSWGHAYDSWGQGTQVTVSS | low polyreactivity
QVQLVESGGGLVQAGGSLRLSCAASGITFSHYAMGWYRQAPGKEREFVAAIRYSGGRTYYADSVKGRFTISRDNAKNTVYLQMNSLKPEDTAVYYCAAVVPDRYWGQGTQVTVSS | high polyreactivity
QVQLVESGGGLVQAGGSLRLSCAASGITFSRNAMGWYRQAPGKERELVAVISTRGGRTYYADSVKGRFTISRDNAKNTVYLQMNSLKPEDTAVYYCAARSTYYRQQRGYDYWGQGTQVTVSS | high polyreactivity
QVQLVESGGGLVQAGGSLRLSCAASGITFSRYAMGWYRQAPGKERELVASISTSGGSTYYADSVKGRFTISRDNAKNTVYLQMNSLKPEDTAVYYCAASVWSSRRFGYWGQGTQVSVSS | high polyreactivity
QVQLVESGGGLVQAGGSLRLSCAASGITFSRYGMGWYRQAPGKERELVAVISWRGGRTYYADSVKGRFTISRYNAKNTVYLHMNSLKPEDTAVYYCAADSRQSVYDYDYWGQGTQVTVSS | high polyreactivity
QVQLVESGGGLVQAGGSLRLSCAASGITFSTYAMGWYRQAPGKERELVAAITKSGGSTYYADSVKGRFTISRDNAKNTVYLQMNSLKPEDTAVYYCAAKGWIWNPYNYWGQGTQVTVSS | low polyreactivity
QVQLVESGGGLVQAGGSLRLSCAASGITFSVYTMGWYRQAPGKERELVAAIDSDGITNYADSVKGRFTISRDNAKNNVYLQMNSLKPEDTAVYYCAKQSGRADGVSGFDYWGQGTQVTVSS | low polyreactivity
QVQLVESGGGLVQAGGSLRLSCAASGITFSWYAMGWYRQAPGKEREFVATISASGGSTYYADSVKGRFTISRDNAKNTVYLQMNSLKAEDTAVYYCAAVIWYRNGARGTFDYWGQGTQETVSS | high polyreactivity
QVQLVESGGGLVQAGGSLRLSCAASGITFSYYAMGWYRQAPGKERELVAAINSSGGSTYYADSVKGRFTISRDNAKNTVYLQMNSLKPEDTAVYYCAADSFLYPYAEFGYWGQGTQVTVSS | low polyreactivity
QVQLVESGGGLVQAGGSLRLSCAASGITFSYYAMGWYRQAPGKERELVAAINSSGGSTYYADSVKGRFTISRDNAKNTVYLQMNSLKPEDTAVYYCNADYGYHNHLFWGYYGWSSDHWGQGTQVTVSS | low polyreactivity
QVQLVESGGGLVQAGGSLRLSCAASGITFSYYAMGWYRQAPGKERELVAAISGSGTSTYYADSVKGRFTISRDNAKNTVYFQMNSLKPEDTAVYYCAAGPPRKPGYYYWGQGTQVTVSS | high polyreactivity
QVQLVESGGGLVQAGGSLRLSCAASGITFTAYAMGWYRQAPGKEREFVAVITRSGGSTYYADSVKGRFTISRDNAKNTVYLQMNSLKPEDTAVYYCAAETSYRYGWYYYWGQGTQVTVSS | high polyreactivity
QVQLVESGGGLVQAGGSLRLSCAASGITFTDYAMGWYRPAPGKERELVAAISSRGGSTYYADSVKGRFTISRDHAKNTVYLQMNSLKPEDTAVYYCNARFVRRGSGYDYWGQGTQVTLSS | high polyreactivity
QVQLVESGGGLVQAGGSLRLSCAASGITFTEYAMGWYRQAPGKERELVATISYGGGITYYADSVKGRFTISRDNAKNTVYLQMNSLKPEDTAVYYCAADGLSQVQRGMDYWGQGTQVTVSS | low polyreactivity
QVQLVESGGGLVQAGGSLRLSCAASGITFTFYAMGWYRQAPGKERELVAAISRRGGSTYYADSVKGRFTISRDNAKNTVYLQMNSLKPEDTAVYYCAARGYRPMDYWGHGTQVTVSS | high polyreactivity
QVQLVESGGGLVQAGGSLRLSCAASGITFTIYGMGWYRQATGKERELVAVISRRGGSTYYADSVKGRFTISRDNAKNTVYLQMNSLKPEDTAFYYCNTRTQGAKQYTGYDYWGQGTQVTVSS | high polyreactivity
QVQLVESGGGLVQAGGSLRLSCAASGITFTSNTMGWYRKAPGKERELVAAISKSGGSTYYADSVKGRFTISRDNAKNTVYLQMNSLKPEDTAVYYCAKDSYYYRRDVTVDYWGQGTQVTVSS | low polyreactivity
QVQLVESGGGLVQAGGSLRLSCAASGITFTSYAMGWYRQAPGKERELVAAISWSGDRTYYADSVKGRFTISRDNAKNTVYLQMNSLKPEDTAVYYCAADQFTGSVWAYYYWGQGTQVTVSS | high polyreactivity

Sequence | polyreactivity (PSR sort gate)
QVQLVESGGGLVQAGGSLRLSCAASGITFTVYAMGWYRQAPGNEREVVAVINESGGSTYYADSVKGRFTISRDNAKNTVYLQMNSLKPEDTAVYYCNKTRVYVSSTYDYWGQGTQVTVSS | low polyreactivity
QVQLVESGGGLVQAGGSLRLSCAASGITFTYNAMGWYRQAPGKERELVASITLSGGNTYYADSVTGRFTISRDNAKNTVYLQMNSLKPEDTAVYYCAADDRGSSYGHFTVEYGYWGQGTQVTVSS | low polyreactivity
QVQLVESGGGLVQAGGSLRLSCAASGITFTYYAMGWYRQAPGKERELVAAITSGGDTYYADSVKGRFTISRDNAKNTVYLQMNSLKPEDTAVYYCAAEAVVVTKYSYWTYGLYDYWGQGTQVTVSS | high polyreactivity
QVQLVESGGGLVQAGGSLRLSCAASGITFTYYAMGWYRQAPGKERELVAGISRGGSTYYADSVKGRFTISRDNAKNTVYLQMNSLKPEDTAVYYCAATSYRRTGYNYWGQGTQVTVSS | high polyreactivity
QVQLVESGGGLVQAGGSLRLSCAASGITFTYYAMGWYRQAPGKERELVDAITDRGGRTYYSDSVKGRFTISRDNAKNTVYIQMNSLKPEDTAVYYCAAYVPQGYKLYYWGQGTQVTVSS | high polyreactivity
QVQLVESGGGLVQAGGSLRLSCAASGITFVDNAMGWYRQAPGKERELVAVISSSGGSTYYADSVKGRFTISRDNAKNTVYLQMNSLKPEDTAVYYCAARNRFYRRPYDYWGQGTQVTVSS | high polyreactivity
QVQLVESGGGLVQAGGSLRLSCAASGITFVDYVMGWYRQAPGKERELVAAISRGGSRTKYADSVKGRFTISRDNAKNTVYLQMNSLKPEDTAVYYCAAPWLVNHYYPSQEYDYWGQGTQVTVSS | high polyreactivity
QVQLVESGGGLVQAGGSLRLSCAASGITFVFYAMGWYRQAPGKERELVAAISWSGGITYYADSVKGRFTISRDNAKNTVYLQMNSLKPEDTAVYYCAARISWEKYQAGYDYWGQGTQVTVSS | low polyreactivity
QVQLVESGGGLVQAGGSLRLSCAASGITFVGNAMGWYRQAPGKERELVAGIRGNGGSTYYADSVKGRFTISRDNAKYTVYLQMNSLKPEDTAVYYCAAAAYYADFDYWGQGTQVTVSS | low polyreactivity
QVQLVESGGGLVQAGGSLRLSCAASGITFVLNVMGWYRQAPGKERELVAAISWSVGGTYYADSVKGRFTISRDNAKNTVYLQMNSLKPEDTAVYYCAAGSYAYDNYGSEYWKWYGYWGQGTQVTVSS | low polyreactivity
QVQLVESGGGLVQAGGSLRLSCAASGITFVLYAMGWYRQAPGKERELVAAISSGGRTKYADSVKGRFTISRDNAKNTVYLQMNSLKPEDTAVYYCATKTRYLYPAYYYWGQGTQVTVSS | high polyreactivity
QVQLVESGGGLVQAGGSLRLSCAASGITFVRNAMGWYRQAPGKEREFVAAISRSGTTTYYADSVKGRFTISRDNAKNTVYLQMNSLKPEETAVYYCAAVRWVRYRTSAYEYWGQGTQVTVSS | high polyreactivity
QVQLVESGGGLVQAGGSLRLSCAASGITFVRNAMGWYRQAPGKERELVAAISGRGGITYYADSVKGRFTISRDNAKNTVYLQMNSLKPEDTAVYYCAASSAGSSYNYWGQGTQVTVSS | high polyreactivity
QVQLVESGGGLVQAGGSLRLSCAASGITFVRYALGWYRPAPGKERELVAAISRRGGSTYYADSVKGRFTISRDNAKNTVYLQMNSLKPEDTAVYYCNAQRPKATVWQLYDSWGQGTQVTVSS | high polyreactivity
QVQLVESGGGLVQAGGSLRLSCAASGITFVRYTMGWYRQAPGKEREFVAGITRGGSTYYADSVKGRFTISRDNAKNTVYLQMNSLKPEDTAVYYCAARPRFLRASVEYDYWGQGTQVTVSS | high polyreactivity
QVQLVESGGGLVQAGGSLRLSCAASGITFVSNVMGWYRQAPGKEREFVAAITGRGDSTYADSVKGRFTISRDNAKNTVYLQMNSLKPEDTAFYYCNRESDIYSFVAMNYWGQGTQVTVSS | low polyreactivity
QVQLVESGGGLVQAGGSLRLSCAASGITFVSYGMGWYRQAPGKERELVAAISSGGRTYADSVKGRFTISRDNAKNTVYLQMNSLKPEDTAVYYCNARDYASGTEGDYWGQGTLVTVSS | low polyreactivity
QVQLVESGGGLVQAGGSLRLSCAASGITFVTYAMGWSRQAPGKERELVADISWRGTSTNYADSVKGRFTISRDNAKNTVYFQMISLKPEDTAVYYCAAKQTYTRLHYLGPSVWDNYDYWGQGTQVTVSS | high polyreactivity
QVQLVESGGGLVQAGGSLRLSCAASGITFVVYAMGCYRPAPGKERELVASITYSGGSTYYADSVQGRFTISRDNAKNTVYLQMTSLKPEDTAVYYCNADGYTIYYLPYSDYDAYDYWGQGTQVTVSS | low polyreactivity
QVQLVESGGGLVQAGGSLRLSCAASGITFVWYDMGGYRQAPGKEREFVAVISKRGGSTYYADSVKGRFTISRDNAKNTVYLQMNSLKPEDTAVYYCAASYNLYRRYYYWGQGTQVTVSS | high polyreactivity
QVQLVESGGGLVQAGGSLRLSCAASGITFVWYDMGWYRQAPGKEREFVAVISKRGGSTYYADSVKGRFTISRDNAKNTVYLQMNSLKPEDTAVYYCAASYNLYRRYYYWGQGTQVTVSS | high polyreactivity
